Our source for the proteolysis of purified human SOD1 by purified rat PSA/NPEPPS: loss of full-length SOD1 by Western blot after 6 h values is publication PMC3113298.

This experiment deals with Cu, Zn-superoxide dismutase-1 (SOD1), human (human) (UniProt P00441).
Chain of Cu, Zn-superoxide dismutase-1 (SOD1), human (human) (P00441 whole entry): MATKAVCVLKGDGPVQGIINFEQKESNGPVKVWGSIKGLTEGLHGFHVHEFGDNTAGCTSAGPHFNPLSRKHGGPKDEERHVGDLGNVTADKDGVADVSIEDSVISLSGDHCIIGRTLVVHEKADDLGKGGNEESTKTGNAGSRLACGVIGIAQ

B1: Puromycin-sensitive aminopeptidase (PSA/NPEPPS), rat (enzyme)
chain: MWLAAAVPSLARRLLLLGSPPPPLLLLLSRSSSRRRRLHSLGLAAMPEKRPFERLPTEVSPINYSLCLKPDLLDFTFEGKLEAAAQVRQATNQIVMNCADIDIITASYAPEGDEEIHATGFNYQNEDEKVTLSFPSTLQTGTGTLKIDFVGELNDKMKGFYRSRYTTPAGEVRYAAVTQFEATDARRAFPCWDEPAIKATFDISLVVPKDRVALSNMNVIDRKPYPDDENLVEVKFARTPVMSTYLVAFVVGEYDFVETRSKDGVCVRVYTPVGKAEQGKFALEVAAKTLPFYKDYFNVPYPLPKIDLIAIADFAAGAMENWGLVTYRETALLIDPKNSCSSSRQWVALVVGHELAHQWFGNLVTMEWWTHLWLNEGFASWIEYLCVDHCFPEYDIWTQFVSADYTRAQELDALDNSHPIEVSVGHPSEVDEIFDAISYSKGASVIRMLHDYIGDKDFKKGMNMYLTKFQQKNAATEDLWESLESASGKPIAAVMNTWTKQMGFPLIYVEAEQVEDDRVLKLSQKKFCASGPYVGEDCPQWMVPITISTSEDPNQAKLKILMDKPEMSVVLKNVKPDQWVKLNLGTVGFYRTQYSSAMLESLLPGIRDLSLPPVDRLGLQNDLFSLARAGIISTVEVLKVMEAFVNEPNYTVWSDLSCNLGILSTLLSHTDFYEEIQEFVKDVFSPIGERLGWDPKPGEGHLDALLRGLVLGKLGKAGHKATLEEARRRFKEHVEGKQILSADLRSPVYLTVLKHGDGTTLDIMLKLHKQADMQEEKNRIERVLGATLSPELIQKVLTFALSEEVRPQDTVSVIGGVAGGSKHGRKAAWKFIKDNWEELYNRYQGGFLISRLIKLSVEGFAVDKMAGEVKAFFESHPAPSAERTIQQCCENILLNAAWLKRDADSIHQYLLQRKASPPSV
With B1, the proteolysis of purified human SOD1 by purified rat PSA/NPEPPS: loss of full-length SOD1 by Western blot after 6 h at 37°C, 50 mM Bicine pH 7.0, 0.2 mM DTT, molar ratio 1:6 (PSA:SOD1) is 80%.
